Experimental data published in publication PMC4850381 (2016).

T1: tree shrew CRHR1 extracellular domain (tree shrew)
T1 chain: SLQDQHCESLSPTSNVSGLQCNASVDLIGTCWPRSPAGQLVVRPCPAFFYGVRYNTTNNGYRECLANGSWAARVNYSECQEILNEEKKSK

T2: human CRHR1 extracellular domain (human)
T2 chain: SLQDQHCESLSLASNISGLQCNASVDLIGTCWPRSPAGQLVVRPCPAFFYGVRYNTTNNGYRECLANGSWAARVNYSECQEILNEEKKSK


Assays:
[1] = biological target: T1, tree shrew CRHR1 extracellular domain; test: SPR; BIACORE3000; CRHR1-ECD immobilised on the sensor chip (about 2000 RU, 10 mM NaAc pH 4.5); CRH peptides serially diluted (5 concentrations) in PBS pH 7.4, 30 μl/min, 3 min injection, 2 min dissociation, 25 °C
[2] = biological target: T2, human CRHR1 extracellular domain; test: SPR
[3] = biological target: T1, tree shrew CRHR1 extracellular domain; test: SPR
[4] = biological target: T2, human CRHR1 extracellular domain; test: SPR; BIACORE3000; CRHR1-ECD immobilised on the sensor chip (about 2000 RU, 10 mM NaAc pH 4.5); CRH peptides serially diluted (5 concentrations) in PBS pH 7.4, 30 μl/min, 3 min injection, 2 min dissociation, 25 °C

Row | Molecule | Kd [1] [µM] | Kd [2] [µM] | Kd [3] [µM] | Kd [4] [µM]
1 | tree shrew corticotrophin-releasing hormone (CRH) peptide | 0.176 | – | – | –
2 | SEEPPISLDLTFHLLREVLEMARAEQLAQQAHSNRKLMEMI [tree shrew corticotrophin-releasing hormone (CRH) peptide] | – | 2.05 | 1.76 | –
3 | SEEPPISLDLTFHLLREVLEMARAEQLAQQAHSNRKLMEIIGK [human corticotrophin-releasing hormone (CRH) peptide] | – | 2.11 | 1.46 | 0.211
